Data taken from US20100260765A1 (AstraZeneca / MedImmune, published 2010).
Substitutions are numbered along the chain they refer to. Values belong to the binder of their own block, whether it stands above or below them.

Key:
human KDR [1] = target: T1, human KDR (human, UniProt P35968 20-1356); experiment: cell-based or functional assay
human KDR [2] = target: T1, human KDR; experiment: cell-based or functional assay; remark: listed apart in the source
human KDR [3] = target: T1, human KDR; experiment: cell-based or functional assay; remark: listed apart in the source
[4] = target: T2, mouse KDR (Flk-1)/Fc (Cat. #443-KD/CF, R&D Systems, Inc.) (mouse, UniProt P35918 20-762); experiment: ELISA, Flk-1 coat 5 ug/mL, antibody 1 ug/mL
T2 construct: Bought reagent; also called mouse VEGFR2; KDR mouse ortholog; not shown: Fc of the bought fusion protein
T2 sequence (P35918 20-762 limits assumed): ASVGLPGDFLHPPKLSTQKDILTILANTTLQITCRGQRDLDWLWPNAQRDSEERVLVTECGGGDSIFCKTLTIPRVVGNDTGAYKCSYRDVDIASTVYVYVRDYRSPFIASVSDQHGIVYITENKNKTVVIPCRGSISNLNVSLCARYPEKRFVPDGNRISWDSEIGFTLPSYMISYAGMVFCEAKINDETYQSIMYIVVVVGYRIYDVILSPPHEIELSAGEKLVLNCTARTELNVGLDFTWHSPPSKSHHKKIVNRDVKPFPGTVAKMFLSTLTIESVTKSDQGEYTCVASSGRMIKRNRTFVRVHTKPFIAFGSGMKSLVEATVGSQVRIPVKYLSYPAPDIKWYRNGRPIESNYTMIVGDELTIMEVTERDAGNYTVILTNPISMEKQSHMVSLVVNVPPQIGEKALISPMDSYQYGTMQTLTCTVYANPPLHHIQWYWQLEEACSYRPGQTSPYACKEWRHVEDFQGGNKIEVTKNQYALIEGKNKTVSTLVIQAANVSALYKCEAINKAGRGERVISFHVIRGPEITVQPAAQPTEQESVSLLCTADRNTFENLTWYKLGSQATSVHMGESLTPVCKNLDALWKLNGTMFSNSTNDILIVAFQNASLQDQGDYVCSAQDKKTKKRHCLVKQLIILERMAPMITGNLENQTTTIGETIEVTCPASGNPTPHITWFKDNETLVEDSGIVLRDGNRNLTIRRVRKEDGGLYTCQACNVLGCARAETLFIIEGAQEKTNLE
In short: (§1)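 Coat wells with the recombinant receptor protein, add purified antibody, then detect the bound antibody by ELISA. Isotype IgG1 and IgG4 are run alongside as controls.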

[5] = target: T2, mouse KDR (Flk-1)/Fc (Cat. #443-KD/CF, …); experiment: ELISA, Flk-1 coat 5 ug/mL, antibody 0.1 ug/mL
In short: as §1

[6] = target: T3, whole KDR-ECD (Cat. # 676490, Calbiochem) (human, UniProt P35968 20-764); experiment: ELISA, KDR-ECD coat 5 ug/mL, antibody 1 ug/mL
T3 construct: extracellular domain; Bought soluble protein; also called soluble KDR; VEGF Receptor 2 D1-7
T3 sequence (P35968 20-764): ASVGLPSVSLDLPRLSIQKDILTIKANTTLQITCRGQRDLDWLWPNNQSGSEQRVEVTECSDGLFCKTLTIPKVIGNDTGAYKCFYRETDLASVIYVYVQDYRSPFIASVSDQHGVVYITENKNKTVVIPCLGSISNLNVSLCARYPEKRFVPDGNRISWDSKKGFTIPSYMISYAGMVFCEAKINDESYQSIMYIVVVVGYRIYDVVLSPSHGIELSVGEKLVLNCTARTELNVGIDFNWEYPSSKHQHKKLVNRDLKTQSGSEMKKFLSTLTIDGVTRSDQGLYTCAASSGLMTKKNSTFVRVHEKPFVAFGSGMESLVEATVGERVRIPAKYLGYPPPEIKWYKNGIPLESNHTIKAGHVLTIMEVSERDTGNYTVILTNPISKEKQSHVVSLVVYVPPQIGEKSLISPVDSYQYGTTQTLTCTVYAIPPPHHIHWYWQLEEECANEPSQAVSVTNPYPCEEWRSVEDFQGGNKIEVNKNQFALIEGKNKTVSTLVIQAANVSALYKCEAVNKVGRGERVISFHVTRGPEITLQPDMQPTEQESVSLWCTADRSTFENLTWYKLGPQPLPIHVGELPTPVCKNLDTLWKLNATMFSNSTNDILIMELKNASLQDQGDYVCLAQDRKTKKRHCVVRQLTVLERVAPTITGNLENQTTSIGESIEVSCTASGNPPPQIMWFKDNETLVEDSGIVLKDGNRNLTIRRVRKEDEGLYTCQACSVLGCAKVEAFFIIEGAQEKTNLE
In short: as §1

[7] = target: T2, mouse KDR (Flk-1)/Fc (Cat. #443-KD/CF, …); experiment: ELISA, Flk-1 coat 5 ug/mL, antibody 0.01 ug/mL
In short: as §1

[8] = target: T3, whole KDR-ECD (Cat. # 676490, …); experiment: ELISA, KDR-ECD coat 5 ug/mL, antibody 0.1 ug/mL
In short: as §1

[9] = target: T3, whole KDR-ECD (Cat. # 676490, …); experiment: ELISA, KDR-ECD coat 5 ug/mL, antibody 0.01 ug/mL
In short: as §1

soluble KDR Ig4-7 domain [10] = target: T4, soluble KDR Ig4-7 domain (human, UniProt P35968 328-764); experiment: ELISA, KDR Ig4-7 coat (1:1 diln.), antibody 1 ug/mL
T4 construct: domain: Ig4-7 domain; also called b-KDRIg4-7-myc-his; Ig4-7 domain of KDR; not shown: myc-his tag of the pSecTag construct
T4 sequence (P35968 328-764): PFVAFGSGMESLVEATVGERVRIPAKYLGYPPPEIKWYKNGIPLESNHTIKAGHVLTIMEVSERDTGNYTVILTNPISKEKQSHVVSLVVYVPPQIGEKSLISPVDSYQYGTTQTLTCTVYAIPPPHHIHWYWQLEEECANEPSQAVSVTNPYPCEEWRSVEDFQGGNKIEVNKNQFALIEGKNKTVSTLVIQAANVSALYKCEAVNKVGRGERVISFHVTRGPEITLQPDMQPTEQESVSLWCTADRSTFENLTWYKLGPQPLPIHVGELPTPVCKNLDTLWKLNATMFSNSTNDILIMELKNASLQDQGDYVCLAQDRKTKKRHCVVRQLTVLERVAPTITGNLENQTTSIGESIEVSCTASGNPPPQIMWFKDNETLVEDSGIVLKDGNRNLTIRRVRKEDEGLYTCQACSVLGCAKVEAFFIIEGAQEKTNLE
In short: as §1

soluble KDR Ig4-7 domain [11] = target: T4, soluble KDR Ig4-7 domain; experiment: ELISA, KDR Ig4-7 coat (1:1 diln.), antibody 0.1 ug/mL
In short: as §1

cynomolgus KDR = target: T5, cynomolgus KDR (cynomolgus monkey, UniProt A0A2K5VE63 20-1356); experiment: FACS on Cyno KDR/293T transfectants, antibody 5 ug/mL
T5 construct: whole, on cells; also called Cyno KDR
T5 sequence (A0A2K5VE63 entry or part of it): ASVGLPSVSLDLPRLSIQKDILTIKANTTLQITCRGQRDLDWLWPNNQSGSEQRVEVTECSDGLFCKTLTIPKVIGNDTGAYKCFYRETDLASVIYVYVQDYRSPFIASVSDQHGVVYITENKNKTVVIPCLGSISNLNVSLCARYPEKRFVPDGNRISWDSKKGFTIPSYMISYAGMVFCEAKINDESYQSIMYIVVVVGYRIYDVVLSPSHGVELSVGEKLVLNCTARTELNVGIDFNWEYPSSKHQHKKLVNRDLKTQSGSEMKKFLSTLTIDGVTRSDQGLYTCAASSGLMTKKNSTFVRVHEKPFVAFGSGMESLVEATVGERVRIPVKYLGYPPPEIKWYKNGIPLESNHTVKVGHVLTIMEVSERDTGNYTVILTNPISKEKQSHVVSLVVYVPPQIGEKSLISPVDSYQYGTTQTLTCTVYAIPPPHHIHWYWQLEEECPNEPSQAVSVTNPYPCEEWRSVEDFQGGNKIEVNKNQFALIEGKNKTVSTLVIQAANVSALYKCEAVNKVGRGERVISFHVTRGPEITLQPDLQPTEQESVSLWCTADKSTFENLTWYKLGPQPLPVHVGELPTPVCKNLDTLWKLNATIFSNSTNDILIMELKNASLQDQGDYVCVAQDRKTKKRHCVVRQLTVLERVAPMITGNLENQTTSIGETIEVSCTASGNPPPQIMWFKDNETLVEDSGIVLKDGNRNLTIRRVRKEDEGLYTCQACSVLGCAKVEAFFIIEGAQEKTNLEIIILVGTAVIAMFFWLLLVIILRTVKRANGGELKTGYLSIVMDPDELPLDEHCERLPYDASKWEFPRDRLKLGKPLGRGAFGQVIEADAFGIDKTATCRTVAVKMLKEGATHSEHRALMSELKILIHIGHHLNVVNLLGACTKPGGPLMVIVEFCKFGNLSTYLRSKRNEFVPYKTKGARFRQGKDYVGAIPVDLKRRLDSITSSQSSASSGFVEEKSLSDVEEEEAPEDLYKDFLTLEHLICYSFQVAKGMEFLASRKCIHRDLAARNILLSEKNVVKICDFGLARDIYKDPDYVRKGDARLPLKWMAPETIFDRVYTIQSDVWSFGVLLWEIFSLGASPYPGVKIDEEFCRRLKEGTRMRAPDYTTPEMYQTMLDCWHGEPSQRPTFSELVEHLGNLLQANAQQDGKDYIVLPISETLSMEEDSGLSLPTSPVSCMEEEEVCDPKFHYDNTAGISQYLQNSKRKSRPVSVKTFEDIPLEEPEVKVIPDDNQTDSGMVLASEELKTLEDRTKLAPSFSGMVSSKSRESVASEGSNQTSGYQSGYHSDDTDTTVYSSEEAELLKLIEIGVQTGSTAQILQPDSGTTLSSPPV

soluble KDR Ig4-7 domain [12] = target: T4, soluble KDR Ig4-7 domain; experiment: ELISA, KDR Ig4-7 coat (1:1 diln.), antibody 0.01 ug/mL
In short: as §1

human KDR [13] = target: T1, human KDR; experiment: FACS titration of purified antibody on HUVEC cells (FACS Kd)
Procedure: The binding affinities of the purified antibodies for endogenously-expressed KDR in HUVEC cells was measured. HUVEC cells were seeded at 150,000 cells/well and incubated with titrations of purified antibody for 4 hours at 4° C. The cells were then washed and incubated with goat anti-human IgG-Fc-Cy5+5 μg/mL 7-Amino-Actinomycin (7AAD) for 30 minutes at 4° C. Bound KDR was detected using FACS analysis.

human KDR [14] = target: T1, human KDR; experiment: FACS competition on 293T/human KDR transfectants; antibody 5 ug/mL first, then competitor VEGF165 50 ng/mL; bound VEGF165 detected
Procedure: (§2) Transfected cells were then seeded at 50,000 cells/well and incubated with 5 μg/mL of candidate antibody for one hour at 4° C. […] After washing, the cells were incubated with Cy5-conjugated rabbit anti-goat antibody plus 7AAD for 15 minutes at 4° C.

human KDR [15] = target: T1, human KDR; experiment: FACS competition on 293T/human KDR transfectants; antibody 5 ug/mL first, then competitor VEGF165 50 ng/mL; inhibition of VEGF binding
Procedure: as §2

human KDR on cells = human KDR on cells (human, UniProt P35968 20-1356); experiment: cell-based or functional assay
Chain of human KDR on cells (P35968 20-1356): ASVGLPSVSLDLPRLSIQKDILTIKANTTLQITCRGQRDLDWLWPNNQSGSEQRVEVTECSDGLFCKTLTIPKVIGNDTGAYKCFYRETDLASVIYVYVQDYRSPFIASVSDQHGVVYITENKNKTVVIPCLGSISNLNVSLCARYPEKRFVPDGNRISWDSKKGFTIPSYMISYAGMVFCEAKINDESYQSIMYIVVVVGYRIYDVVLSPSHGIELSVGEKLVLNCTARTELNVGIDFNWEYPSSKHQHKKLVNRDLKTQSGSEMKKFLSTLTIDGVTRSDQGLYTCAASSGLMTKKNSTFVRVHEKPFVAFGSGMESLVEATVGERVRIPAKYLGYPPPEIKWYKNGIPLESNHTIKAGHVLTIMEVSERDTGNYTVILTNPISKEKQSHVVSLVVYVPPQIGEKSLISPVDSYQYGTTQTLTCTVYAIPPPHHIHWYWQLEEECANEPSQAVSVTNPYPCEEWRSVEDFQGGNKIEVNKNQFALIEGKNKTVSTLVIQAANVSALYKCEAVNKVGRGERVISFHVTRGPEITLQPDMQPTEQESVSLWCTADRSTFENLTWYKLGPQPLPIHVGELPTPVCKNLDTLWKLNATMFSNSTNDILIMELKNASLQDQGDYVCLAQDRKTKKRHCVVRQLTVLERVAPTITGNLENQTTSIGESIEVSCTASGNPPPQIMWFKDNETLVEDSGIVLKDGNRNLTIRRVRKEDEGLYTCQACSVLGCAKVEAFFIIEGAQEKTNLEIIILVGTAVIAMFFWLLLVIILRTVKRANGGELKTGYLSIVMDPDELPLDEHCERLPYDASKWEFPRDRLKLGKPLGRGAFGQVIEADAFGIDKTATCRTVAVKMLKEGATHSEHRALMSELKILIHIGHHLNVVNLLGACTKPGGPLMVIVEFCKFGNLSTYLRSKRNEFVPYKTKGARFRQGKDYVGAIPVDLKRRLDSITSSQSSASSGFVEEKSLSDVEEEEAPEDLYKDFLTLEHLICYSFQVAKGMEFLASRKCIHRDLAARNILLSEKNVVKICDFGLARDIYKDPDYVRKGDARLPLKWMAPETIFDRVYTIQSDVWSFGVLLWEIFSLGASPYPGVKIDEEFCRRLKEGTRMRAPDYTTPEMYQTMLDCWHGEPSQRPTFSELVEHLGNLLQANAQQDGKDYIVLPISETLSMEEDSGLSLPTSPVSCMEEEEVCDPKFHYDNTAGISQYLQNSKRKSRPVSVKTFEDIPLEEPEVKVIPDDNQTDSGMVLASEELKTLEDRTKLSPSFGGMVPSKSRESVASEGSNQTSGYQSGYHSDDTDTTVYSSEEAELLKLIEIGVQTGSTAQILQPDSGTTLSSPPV

[16] = target: T6, KDR (antigen used as analyte in the Biacore assay) (UniProt P35968 20-764, limits assumed); experiment: SPR, Biacore 2000; antibody amine-coupled on CM4 chip, KDR as analyte; global 1:1 fit; 23 C
T6 construct: also called the antigen KDR
T6 sequence (P35968 20-764 limits assumed): as the sequence (P35968 20-764) above
Procedure: Each purified anti-KDR antibody was immobilized on a CM4 sensor chip within a Biacore 2000 using standard amine coupling. Immobilization levels were kept between 250 and 350 RU. The concentration of KDR was determined by UV-VIS spectroscopy using a molar absorptivity at 280 nm of 110, 440 M⁻¹ cm⁻¹, which was calculated from the sequence of the protein using a method developed by Pace et al. (G. R. Grimsley and C. N. Pace (2003) in Current Protocols in Protein Science (John Wiley & Sons, Inc.), 3.1.1-3.1.9). The antigen KDR was diluted to a starting concentration of 52 nM and tested in a 3-fold dilution series in triplicate. The running buffer contained HBS-P with 0.1 mg/ml BSA and binding responses were collected at 23 degrees C. […] The response data were globally fit with a simple 1:1 interaction model. The number shown in parentheses is the standard error in the last significant figure.

T1 sequence (P35968 20-1356): as the sequence (P35968 20-1356) above

KDR tyrosine phosphorylation in HUVEC, EC50 (nM), Average (human KDR [1]): 1.2 nM
KDR tyrosine phosphorylation in HUVEC, EC50 (nM), N = 1 (human KDR [1]): 1.2 nM
KDR tyrosine phosphorylation in HUVEC, EC50 (nM), N = 2 (human KDR [1]): 1.1 nM
KDR tyrosine phosphorylation in HUVEC, Maximum Inhibition at 100 nM (% Inhibition), Average (human KDR [1]): 85%
KDR tyrosine phosphorylation in HUVEC, Maximum Inhibition at 100 nM (% Inhibition), N = 1 (human KDR [1]): 83%
KDR tyrosine phosphorylation in HUVEC, Maximum Inhibition at 100 nM (% Inhibition), N = 2 (human KDR [1]): 86%
6-keto Prostaglandin F1α release, EC50 (nM), Average (human KDR [3]): 3.9 nM
6-keto Prostaglandin F1α release, EC50 (nM), N = 1 (human KDR [3]): 3.5 nM
6-keto Prostaglandin F1α release, EC50 (nM), N = 2 (human KDR [3]): 4.4 nM
6-keto Prostaglandin F1α release, Maximum Inhibition (% Inhibition), Average (human KDR [3]): 85%
6-keto Prostaglandin F1α release, Maximum Inhibition (% Inhibition), N = 1 (200 nM) (human KDR [3]): 76%
6-keto Prostaglandin F1α release, Maximum Inhibition (% Inhibition), N = 2 (333 nM) (human KDR [3]): 94%
ELISA reading [4]: 3.48
ELISA reading [5]: 3.04
ELISA reading [6]: 1.11
ELISA reading [7]: 1.25
ELISA reading [8]: 0.153
ELISA reading [9]: 0.09
ELISA reading (soluble KDR Ig4-7 domain [10]): 0.094
ELISA reading (soluble KDR Ig4-7 domain [11]): 0.088
FACS Geometric Mean Fluorescence (cynomolgus KDR): 108
ELISA reading (soluble KDR Ig4-7 domain [12]): 0.073
Kd (human KDR [13]): 1 nM
FACS Geometric Mean Fluorescence (bound VEGF165) (human KDR [14]): 126
% Inhibition (human KDR [15]): 2%
B1: 33C3 (antibody, V domains shown)
VH: QVQLVESGGGLVKPGESLRLSCAASGFTFSDYYMSWIRQAPGKGLEWVSYISHGGSTIYYADSVKGRFTISRDNAKNSLYLQMNSLRVEDTAVYFCARDDFWSGYYFNWFDPWGQGALVTVSS
VL: DIQMTQYPLSLSASVGDRVTITCRASQSISSFLNWYHQKPGKAPKLLIYGTSSLQSGVPSRFSGSGSGTDFTLTISSLQPEDFATYYCQQTYSIPLTFGGGTNVEIK
notes: Fully human monoclonal antibody from a XenoMouse hybridoma (IgG2 or IgG4 strain), purified
HUVEC survival, Maximum Inhibition at 50 nM (% Inhibition), Average (human KDR [2]): 101%
HUVEC survival, Maximum Inhibition at 50 nM (% Inhibition), N = 1 (human KDR [2]): 106%
HUVEC survival, Maximum Inhibition at 50 nM (% Inhibition), N = 2 (human KDR [2]): 95%

KDR tyrosine phosphorylation in HUVEC, EC50 (nM), Average (human KDR [1]): 3.1 nM
KDR tyrosine phosphorylation in HUVEC, EC50 (nM), N = 1 (human KDR [1]): 2.7 nM
KDR tyrosine phosphorylation in HUVEC, EC50 (nM), N = 2 (human KDR [1]): 3.4 nM
KDR tyrosine phosphorylation in HUVEC, Maximum Inhibition at 100 nM (% Inhibition), Average (human KDR [1]): 77%
KDR tyrosine phosphorylation in HUVEC, Maximum Inhibition at 100 nM (% Inhibition), N = 1 (human KDR [1]): 75%
KDR tyrosine phosphorylation in HUVEC, Maximum Inhibition at 100 nM (% Inhibition), N = 2 (human KDR [1]): 79%
6-keto Prostaglandin F1α release, EC50 (nM), Average (human KDR [3]): 5.3 nM
6-keto Prostaglandin F1α release, EC50 (nM), N = 1 (human KDR [3]): 5.1 nM
6-keto Prostaglandin F1α release, EC50 (nM), N = 2 (human KDR [3]): 5.6 nM
6-keto Prostaglandin F1α release, Maximum Inhibition (% Inhibition), Average (human KDR [3]): 70%
6-keto Prostaglandin F1α release, Maximum Inhibition (% Inhibition), N = 1 (200 nM) (human KDR [3]): 63%
6-keto Prostaglandin F1α release, Maximum Inhibition (% Inhibition), N = 2 (333 nM) (human KDR [3]): 76%
ELISA reading [4]: 3.21
ELISA reading [5]: 2.94
ELISA reading [6]: 1.91
ELISA reading [7]: 1.2
ELISA reading [8]: 0.089
ELISA reading [9]: 0.075
ELISA reading (soluble KDR Ig4-7 domain [10]): 0.08
ELISA reading (soluble KDR Ig4-7 domain [11]): 0.078
FACS Geometric Mean Fluorescence (cynomolgus KDR): 103
ELISA reading (soluble KDR Ig4-7 domain [12]): 0.074
Kd (human KDR [13]): 1.8 nM
FACS Geometric Mean Fluorescence (bound VEGF165) (human KDR [14]): 120
% Inhibition (human KDR [15]): 7%
B2: 22B8 (antibody, V domains shown)
VH: QLQLQESGPGLVKPSETLSLTCTVSGGSISSRYYYWGWVRQPPGKGLEWIGTIYYSGHTYYNPSLKTRVTISVDTSKNQFSLKLISVTAADTAVYYCATQQLVLYYFDFWGQGTLVTVSS
VL: EIVLTQSPGTLSLSPGERAALSCRASQSISSSYLAWYQQRPGQAPRLLIYGASSRATGIPDRFNGSGSGTDFTLTISRLEPEDFAVYYCQQFGSSITFGQGTRLEIK
notes: as for B1
HUVEC survival, Maximum Inhibition at 50 nM (% Inhibition), Average (human KDR [2]): 87%
HUVEC survival, Maximum Inhibition at 50 nM (% Inhibition), N = 1 (human KDR [2]): 80%
HUVEC survival, Maximum Inhibition at 50 nM (% Inhibition), N = 2 (human KDR [2]): 95%

% Inhibition (Average) of VEGF-C-mediated KDR activity, antibody 1 nM (human KDR on cells): 51%
% Inhibition (Average) of VEGF-C-mediated KDR activity, antibody 10 nM (human KDR on cells): 76%
% Inhibition (Average) of VEGF-C-mediated KDR activity, antibody 100 nM (human KDR on cells): 80%
% Inhibition (N = 1) of VEGF-C-mediated KDR activity, antibody 1 nM (human KDR on cells): 52%
% Inhibition (N = 1) of VEGF-C-mediated KDR activity, antibody 10 nM (human KDR on cells): 73%
% Inhibition (N = 1) of VEGF-C-mediated KDR activity, antibody 100 nM (human KDR on cells): 76%
% Inhibition (N = 2) of VEGF-C-mediated KDR activity, antibody 1 nM (human KDR on cells): 50%
% Inhibition (N = 2) of VEGF-C-mediated KDR activity, antibody 10 nM (human KDR on cells): 79%
% Inhibition (N = 2) of VEGF-C-mediated KDR activity, antibody 100 nM (human KDR on cells): 84%
Kd [16]: 4.91 nM
koff [16]: 0.000254 s⁻¹
kon [16]: 51800 M⁻¹ s⁻¹
B3: 27D10 (antibody, V domains shown)
VH: B2 VH with Y33S, Y34D, V39I, H58S, Y60F, T67S, I85S, T99R, F109Y
VL: not shown
notes: Purified fully human monoclonal antibody from XenoMouse hybridoma (IgG2 or IgG4 strains); also called MAb 27D10
